Test results as given in PMC314469, “Protein Interaction Networks by Proteome Peptide Scanning” (PLoS Biology, 2004).
Each block holds one binder with its values, some of them ahead of it.

Biological target: T1, Myo5 SH3 (MYO5_YEAST), Q04439
T1 chain: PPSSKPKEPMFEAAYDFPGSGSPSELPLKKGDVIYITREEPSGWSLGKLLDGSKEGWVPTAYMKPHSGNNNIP
Assay: SPOT array

B1: YDR132C 184-197 (peptide)
chain: RPPSHSAPYIPRSS
- normalised SPOT signal, Boehringer light units (BLU); mean over the file's lines of this peptide: 47400

B2: YHR082C 909-922 (peptide)
chain: SFVGFPKPLLPRNH
- normalised SPOT signal, Boehringer light units (BLU); mean over the file's lines of this peptide: 205

B3: YGR083C 349-362 (peptide)
chain: QEISLIDPSTPDKA
- normalised SPOT signal, Boehringer light units (BLU); mean over the file's lines of this peptide: 155

B6: YDL233W 197-210 (peptide)
chain: REFEFIIPVFPVIS
- normalised SPOT signal, Boehringer light units (BLU); mean over the file's lines of this peptide: 163

B8: YBR289W 73-86 (peptide)
chain: PPQTHQSPPPPPQQ
- normalised SPOT signal, Boehringer light units (BLU); mean over the file's lines of this peptide: 222

B9: YGL156W 915-928 (peptide)
chain: RLSLLRSPKAPDAH
- normalised SPOT signal, Boehringer light units (BLU); mean over the file's lines of this peptide: 442

B10: YIR029W 44-57 (peptide)
chain: SAENLIQPTAPIRD
- normalised SPOT signal, Boehringer light units (BLU); mean over the file's lines of this peptide: 56.4

B11: YJL046W 318-331 (peptide)
chain: QFSGLLEPSLPNNM
- normalised SPOT signal, Boehringer light units (BLU); mean over the file's lines of this peptide: 84.4

B13: YIL037C 447-460 (peptide)
chain: RLTNFEVPSLPTFH
- normalised SPOT signal, Boehringer light units (BLU); mean over the file's lines of this peptide: 319

B14: YIL151C 523-536 (peptide)
chain: QLIGFGNPKNPFAL
- normalised SPOT signal, Boehringer light units (BLU); mean over the file's lines of this peptide: 46.1

B15: YDR236C 34-47 (peptide)
chain: REVDLPIPAQPGPP
- normalised SPOT signal, Boehringer light units (BLU); mean over the file's lines of this peptide: 114

B16: YGL021W 219-232 (peptide)
chain: SENRLRTPLKPLVN
- normalised SPOT signal, Boehringer light units (BLU); mean over the file's lines of this peptide: 272

B18: YBR212W 375-388 (peptide)
chain: QLRSLFKPFGPILN
- normalised SPOT signal, Boehringer light units (BLU); mean over the file's lines of this peptide: 370

B19: YJR119C 479-492 (peptide)
chain: QLVTLISPYDPNFK
- normalised SPOT signal, Boehringer light units (BLU); mean over the file's lines of this peptide: 178

B20: YER033C 119-132 (peptide)
chain: PPPPLPPPLFPSSS
- normalised SPOT signal, Boehringer light units (BLU); mean over the file's lines of this peptide: 38500

B21: YDL035C 918-931 (peptide)
chain: SENYLVKPTIPGTT
- normalised SPOT signal, Boehringer light units (BLU); mean over the file's lines of this peptide: 61.5

B25: YGL014W 93-106 (peptide)
chain: PPPDFNDPTAPLSS
- normalised SPOT signal, Boehringer light units (BLU); mean over the file's lines of this peptide: 153

B26: YIL109C 25-38 (peptide)
chain: QPAQFMPPQDPAAA
- normalised SPOT signal, Boehringer light units (BLU); mean over the file's lines of this peptide: 134

B27: YBR279W 23-36 (peptide)
chain: PPKLLVYPESPETN
- normalised SPOT signal, Boehringer light units (BLU); mean over the file's lines of this peptide: 91.3

B30: YFL006W 181-194 (peptide)
chain: SAFPYVFPLPPWIP
- normalised SPOT signal, Boehringer light units (BLU); mean over the file's lines of this peptide: 13000

B32: YAL017W 90-103 (peptide)
chain: PPLDFEQPRLPSTA
- normalised SPOT signal, Boehringer light units (BLU); mean over the file's lines of this peptide: 192

B37: YBL088C 912-925 (peptide)
chain: RPQWLSYPEQPLNS
- normalised SPOT signal, Boehringer light units (BLU); mean over the file's lines of this peptide: 241

B38: YEL065W 193-206 (peptide)
chain: RLLALFIPALPFII
- normalised SPOT signal, Boehringer light units (BLU); mean over the file's lines of this peptide: 265

B39: YDL205C 162-175 (peptide)
chain: RLQKLDDPKSPYQS
- normalised SPOT signal, Boehringer light units (BLU); mean over the file's lines of this peptide: 127

B40: YCL029C 108-121 (peptide)
chain: QFSPMDDPKSPTPM
- normalised SPOT signal, Boehringer light units (BLU); mean over the file's lines of this peptide: 121

B41: YFL011W 32-45 (peptide)
chain: REASLDIPYKPIIA
- normalised SPOT signal, Boehringer light units (BLU); mean over the file's lines of this peptide: 176

B45: YGL235W 82-95 (peptide)
chain: SFTRMPLPTPPIEG
- normalised SPOT signal, Boehringer light units (BLU); mean over the file's lines of this peptide: 287

B49: YBR212W 12-25 (peptide)
chain: QENPYIIPLPPSST
- normalised SPOT signal, Boehringer light units (BLU); mean over the file's lines of this peptide: 240

B50: YGL125W 205-218 (peptide)
chain: RAAGMDVPIIPGIM
- normalised SPOT signal, Boehringer light units (BLU); mean over the file's lines of this peptide: 98.2

B51: YIL132C 50-63 (peptide)
chain: QFQKLVPPTLPENV
- normalised SPOT signal, Boehringer light units (BLU); mean over the file's lines of this peptide: 154

B53: YGL065C 374-387 (peptide)
chain: SATGWLKPAVPIQW
- normalised SPOT signal, Boehringer light units (BLU); mean over the file's lines of this peptide: 94.6

B55: YDL195W 847-860 (peptide)
chain: RLNSFAPPPNPYAT
- normalised SPOT signal, Boehringer light units (BLU); mean over the file's lines of this peptide: 274

Further lines, results first:

- normalised SPOT signal, Boehringer light units (BLU); mean over the file's lines of this peptide: 95700
B4: YNL271C 1240-1251 (peptide)
chain: PPPPPPPPPVPA

- normalised SPOT signal, Boehringer light units (BLU); mean over the file's lines of this peptide: 1100
B5: YKR077W 284-297 (peptide)
chain: QASMLRRPSLPHID

- normalised SPOT signal, Boehringer light units (BLU); mean over the file's lines of this peptide: 777
B7: YOR235W 5-18 (peptide)
chain: RPSKFFHPPIPHIP

- normalised SPOT signal, Boehringer light units (BLU); mean over the file's lines of this peptide: 139
B12: YLR399C 121-134 (peptide)
chain: QELPMEVPKEPAPA

- normalised SPOT signal, Boehringer light units (BLU); mean over the file's lines of this peptide: 97.3
B17: YLR301W 124-137 (peptide)
chain: SFRELWQPVDPSRE

- normalised SPOT signal, Boehringer light units (BLU); mean over the file's lines of this peptide: 845
B22: YMR156C 129-142 (peptide)
chain: RLWLYAAPKRPKTF

- normalised SPOT signal, Boehringer light units (BLU); mean over the file's lines of this peptide: 99.7
B23: YOR032C 362-375 (peptide)
chain: SFVHLTEPSQPLSD

- normalised SPOT signal, Boehringer light units (BLU); mean over the file's lines of this peptide: 208
B24: YPL066W 70-83 (peptide)
chain: SFTPFNRPSDPSNG

- normalised SPOT signal, Boehringer light units (BLU); mean over the file's lines of this peptide: 119
B28: YOR149C 314-327 (peptide)
chain: QELRFLVPLVPLLV

- normalised SPOT signal, Boehringer light units (BLU); mean over the file's lines of this peptide: 50.5
B29: YPL186C 118-131 (peptide)
chain: SELYYEGPETPTPS

- normalised SPOT signal, Boehringer light units (BLU); mean over the file's lines of this peptide: 215
B31: YOL057W 181-194 (peptide)
chain: SAYYLGLPVTPEDM

- normalised SPOT signal, Boehringer light units (BLU); mean over the file's lines of this peptide: 164
B33: YMR002W 21-34 (peptide)
chain: SASTMAAPVHPQQQ

- normalised SPOT signal, Boehringer light units (BLU); mean over the file's lines of this peptide: 187
B34: YNL278W 921-934 (peptide)
chain: QPQAYHLPGNPYST

- normalised SPOT signal, Boehringer light units (BLU); mean over the file's lines of this peptide: 224
B35: YNL124W 379-392 (peptide)
chain: QPTNFQYPPPPFGQ

- normalised SPOT signal, Boehringer light units (BLU); mean over the file's lines of this peptide: 23.1
B36: YPR039W 3-16 (peptide)
chain: SFDYLFHPFVPSTI

- normalised SPOT signal, Boehringer light units (BLU); mean over the file's lines of this peptide: 441
B42: YLR086W 763-776 (peptide)
chain: RLFDLVKPKNPKFS

- normalised SPOT signal, Boehringer light units (BLU); mean over the file's lines of this peptide: 257
B43: YLL016W 216-229 (peptide)
chain: SETSHHSPSAPFQR

- normalised SPOT signal, Boehringer light units (BLU); mean over the file's lines of this peptide: 248
B44: YKL129C 1112-1125 (peptide)
chain: PPPPMGQPKDPKFE

- normalised SPOT signal, Boehringer light units (BLU); mean over the file's lines of this peptide: 79.6
B46: YNL124W 356-369 (peptide)
chain: SANNYPFPQQPNGM

- normalised SPOT signal, Boehringer light units (BLU); mean over the file's lines of this peptide: 110
B47: YPL101W 254-267 (peptide)
chain: SELTFIAPTQPVST

- normalised SPOT signal, Boehringer light units (BLU); mean over the file's lines of this peptide: 6720
B48: YOR197W 87-100 (peptide)
chain: PPMAYNRPVYPPPQ

- normalised SPOT signal, Boehringer light units (BLU); mean over the file's lines of this peptide: 76200
B52: YOR329C 661-674 (peptide)
chain: QPQHLPPPPPPRAQ

- normalised SPOT signal, Boehringer light units (BLU); mean over the file's lines of this peptide: 209
B54: YMR036C 409-422 (peptide)
chain: SFRKLASPSNPNFF

- normalised SPOT signal, Boehringer light units (BLU); mean over the file's lines of this peptide: 158
B56: YOR160W 693-706 (peptide)
chain: RFHVFSEPILPSVA

- normalised SPOT signal, Boehringer light units (BLU); mean over the file's lines of this peptide: 126
B57: YMR148W 78-91 (peptide)
chain: QPAQLQEPQEPLST

- normalised SPOT signal, Boehringer light units (BLU); mean over the file's lines of this peptide: 145
B58: YOL082W 127-140 (peptide)
chain: REDAHEDPVSPKAG
